Experimental data published in patent US20190367626A1.
Numbering of substitutions follows the chain as printed.

B1: HC1LC3 (antibody, human IgG1, kappa, V domains shown)
VH: QVQLVQSGAEVKKPGATVKISCKVSGYIFTNNDMNWVQQAPGKGLEWMGGIDPGDGRTKYNEKFKGRVTITADESTSTAYMELSSLRSEDTAVYYCGRGGYEFGIDYWGQGTLVTVSS
VL: DIVMTQSPDSLAVSLGERATINCKSSQSLLNSGNQKNSLAWYQQRPGHPPKLLLYGASTRESGVPDRFSGSGSGTDFTLTISSLQAEDVAVYYCQNDHSFPLTFGGGTKVEIKR
B2: HC4LC3 (antibody, human IgG1, kappa, V domains shown)
VH: B1 VH with Q6E, T17S, I20V, Q38R, K43E, I70M, A72E, E74T, S77D, L113T
VL: B1 VL
B3: HC2LC3 (antibody, human IgG1, kappa, V domains shown)
VH: QVQLVQSGAEVKKPGASVKVSCKASGYIFTNNDMNWVRQAPGQGLEWMGGIDPGDGRTKYNEKFKGRVTMTRDTSTNTVYMELSSLTSEDTAVYFCGRGGYEFGIDYWGQGTTVTVSS
VL: B1 VL
B4: HC3LC3 (antibody, human IgG1, kappa, V domains shown)
VH: QVQLVQSGAEVKKPGSSVKVSCKSSGYIFTNNDMNWVRQAPGQGLDWMGGIDPGDGRTKYNEKFKGRVTISADIFSNTAYMELNSLTSEDTAVYFCGRGGYEFGIDYWGQGTTVTVSS
VL: B1 VL
B5: HC0LC0 (antibody, human IgG1, kappa, V domains shown)
VH: QVQLQQSGPELVKPGASVKISCKASGYIFTNNDMNWVKQRPGQGLEWIGGIDPGDGRTKYNEKFKGKATLTADKFSNTVYMQLSSLTSENSAVYFCGRGGYEFGIDYWGQGTSVTVSS
VL: DIVMTQSPSSLSVSAGEKVTMSCKSSQSLLNSGNQKNSLAWYQQKPGRPPTLLISGASTRESGVPDRFTGSGSGTDFTLTISSVQAEDLAVYYCQNDHSFPLTFGAGTKLELKR

The binders below were run against TRAILshort (UniProt P50591) (assay: SPR).
Sequence of TRAILshort (P50591 other isoform, or with tags, fused parts or gaps): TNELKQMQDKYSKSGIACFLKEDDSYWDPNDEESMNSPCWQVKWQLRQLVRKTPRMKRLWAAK

Binder | Kd [pM]
B1 | 10
B2 | 31
B3 | 3.8
B4 | 4.5
B5 | 3
